Test results published in patent publication US20170073416A1 (SPRING BIOSCIENCE, published 2017).
No end group written: not given here.

How the values were obtained:
[1] = target: T1, human B7-H3 (human, UniProt Q5ZPR3 29-534); experiment: IHC on FFPE samples
T1 construct: whole, on cells; Endogenous protein detected in FFPE cells and tissues by IHC, and as a 110 kDa band in SDS-PAGE-fractionated cell lysates by Western blot; also called B7-H3 polypeptide
T1 sequence (looked up): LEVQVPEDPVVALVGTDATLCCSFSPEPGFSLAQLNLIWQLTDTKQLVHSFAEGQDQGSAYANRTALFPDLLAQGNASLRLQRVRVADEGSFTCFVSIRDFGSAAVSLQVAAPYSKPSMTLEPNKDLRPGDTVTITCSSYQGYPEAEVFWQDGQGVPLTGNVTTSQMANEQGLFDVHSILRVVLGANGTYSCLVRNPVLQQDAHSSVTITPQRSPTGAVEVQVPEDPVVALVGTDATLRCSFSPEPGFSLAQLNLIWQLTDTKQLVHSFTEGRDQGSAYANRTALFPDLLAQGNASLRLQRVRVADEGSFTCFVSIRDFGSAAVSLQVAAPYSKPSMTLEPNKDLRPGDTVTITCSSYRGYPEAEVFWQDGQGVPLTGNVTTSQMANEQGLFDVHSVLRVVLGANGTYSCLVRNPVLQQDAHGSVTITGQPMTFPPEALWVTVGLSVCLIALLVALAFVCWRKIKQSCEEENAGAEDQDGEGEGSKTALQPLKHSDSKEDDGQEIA
Description: Rabbit anti-human B7-H3 monoclonal antibodies SP265 and S10H50L58 were applied onto formalin-fixed paraffin embedded (FFPE) tissue samples to assess the staining patterns of these antibodies. Tissue samples include Hs700t (positive control), kidney (negative control) and renal cell carcinoma (positive control). IHC was performed on BenchMark Ultra (Ventana Medical Systems) using mild CC1 cell conditioning with OptiView detection kit.

[2] = target: T2, peptide immunogen (human B7-H3 aa 521-534), KHSDSKEDDGQEIA (human, not fully specified); experiment: ELISA, antibody on immobilized peptide immunogen
T2 construct: also called immobilized peptide immunogen
T2 peptide: KHSDSKEDDGQEIA
Description: ELISA studies were performed with the SP265 antibody to evaluate binding to the immobilized peptide immunogen (human B7-H3 aa 521-534).

B1: Rabbit anti-human B7-H3 monoclonal antibody SP265 (antibody, V domains shown)
VH: QSVEESRGGLIKPTDTLTLTCTVSGFSLGSYGVSWVRQAPGNGLEWIGGSGKRGNPYYASWAKSRSTITRNTNLNTVTLKMTSLTAADTATYFCASRAPVVSTSMTFNIWGPGTLVTVSS
VL: AQVPTQTPSPVSAAVGGTVTINCQASQSVYNNKNLSWYQQKPGQPPKLLIYEASTLASGVPSRFSGSGSGTQFALTISGVQCEDAATYYCQGEFTCSGADCGAFGGGTEVVVK
notes: also called SP265 anti-B7-H3 antibody; SP265 B7-H3 antibody
B1 was tested, and the binding result [1] was “binds” and the EC50 [2] was 0.067 nM.
